Reference: PMC9845149, “Interplay between C1-inhibitor and group IIA secreted phospholipase A2 impairs their respective function” (Immunologic Research, 2022)

Target: T1, human plasma-derived C1-esterase inhibitor (human, UniProt P05155 23-500)
T1 construct: Glycoprotein from plasma; also called pdC1-INH; C1-INH; source: bought: Cinryze, Takeda Pharmaceutical Company (human plasma-derived); also in plasma of healthy donors (functional assay)
T1 sequence (looked up): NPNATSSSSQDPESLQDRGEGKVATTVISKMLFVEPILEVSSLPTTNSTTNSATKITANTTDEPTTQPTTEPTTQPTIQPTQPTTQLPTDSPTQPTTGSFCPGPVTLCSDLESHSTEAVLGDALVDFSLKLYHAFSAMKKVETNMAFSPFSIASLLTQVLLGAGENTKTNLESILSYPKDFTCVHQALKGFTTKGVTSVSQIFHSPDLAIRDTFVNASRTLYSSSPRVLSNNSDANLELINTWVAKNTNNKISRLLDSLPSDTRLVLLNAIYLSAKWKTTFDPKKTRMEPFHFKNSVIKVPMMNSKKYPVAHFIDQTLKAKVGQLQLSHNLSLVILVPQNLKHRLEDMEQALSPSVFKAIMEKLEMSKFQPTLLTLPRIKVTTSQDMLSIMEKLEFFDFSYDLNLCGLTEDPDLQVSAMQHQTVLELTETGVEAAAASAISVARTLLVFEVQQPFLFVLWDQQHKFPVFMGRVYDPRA
Assay: SPR; Biacore 3000; hGIIA N1A immobilised at 800 RU on a CM5 chip (EDC/NHS), BSA as reference channel; C1-INH injected at 10, 20, 30, 40, 50 µM in HBS (10 mM Hepes, pH 7.4, 150 mM NaCl, 3 mM EDTA), 30 µL/min; 1:1 Langmuir model
Settings: both partners purified

B1: Recombinant human group IIA secreted phospholipase A2, N1A catalytically active mutant (enzyme, UniProt P14555 21-144, looked up)
chain: ALVNFHRMIKLTTGKEAALSYGFYGCHCGVGGRGSPKDATDRCCVTHDCCYKRLEKRGCGTKFLSYKFSNSGSRITCAKQDSCRSQLCECDKAAATCFARNKTTYNKKYQYYSNKHCRGSTPRC
notes: human group IIA secreted phospholipase A2 (hGIIA), UniProt P14555; N1A mutation facilitates the removal of the initiator methionine; PDB 1DCY chain A covers aa 1-124; also called hGIIA; hGIIA N1A
Kd: 6.7 µM | koff: 0.0125 s⁻¹
